Results published in publication PMC3258524, “Regulation of the human tyrosinase gene in retinal pigment epithelium cells: the significance of transcription factor orthodenticle homeobox 2 and its polymorphic binding site” (Molecular Vision, 2012).

Key:
[1] = molecular target: T1, full-length MITF-A (microphthalmia-associated transcription factor, isoform A) (UniProt O75030-2 1-520); assay: cell-based or functional assay
T1 sequence (looked up): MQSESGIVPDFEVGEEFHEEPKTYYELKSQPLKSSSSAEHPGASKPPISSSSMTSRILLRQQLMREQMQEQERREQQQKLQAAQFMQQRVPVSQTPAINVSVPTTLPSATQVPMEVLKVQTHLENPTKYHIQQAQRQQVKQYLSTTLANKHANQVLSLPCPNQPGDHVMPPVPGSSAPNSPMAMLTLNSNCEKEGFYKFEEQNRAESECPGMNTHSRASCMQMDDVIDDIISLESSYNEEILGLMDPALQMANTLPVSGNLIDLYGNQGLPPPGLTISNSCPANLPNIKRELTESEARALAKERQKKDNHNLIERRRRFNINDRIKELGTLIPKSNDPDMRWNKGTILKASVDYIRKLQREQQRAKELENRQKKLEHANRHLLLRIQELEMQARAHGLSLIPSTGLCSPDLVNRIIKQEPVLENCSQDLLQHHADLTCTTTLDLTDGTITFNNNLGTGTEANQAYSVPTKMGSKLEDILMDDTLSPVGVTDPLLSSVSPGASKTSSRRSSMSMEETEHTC

[2] = molecular target: T2, full-length MITF-M (microphthalmia-associated transcription factor, isoform M) (UniProt O75030-9 1-419); assay: cell-based or functional assay
T2 sequence (looked up): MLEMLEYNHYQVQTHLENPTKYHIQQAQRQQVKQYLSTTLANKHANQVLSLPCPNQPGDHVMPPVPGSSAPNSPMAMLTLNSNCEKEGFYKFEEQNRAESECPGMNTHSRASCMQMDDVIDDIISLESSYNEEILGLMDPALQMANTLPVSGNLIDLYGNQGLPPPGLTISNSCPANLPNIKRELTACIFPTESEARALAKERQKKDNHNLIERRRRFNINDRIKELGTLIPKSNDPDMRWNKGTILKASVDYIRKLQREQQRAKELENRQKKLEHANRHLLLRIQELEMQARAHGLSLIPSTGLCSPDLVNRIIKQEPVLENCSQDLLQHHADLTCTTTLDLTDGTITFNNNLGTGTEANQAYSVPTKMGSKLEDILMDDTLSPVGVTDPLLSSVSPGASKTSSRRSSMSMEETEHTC

luciferase reporter driven by the human TYR promoter construct -152 (MITF sites, no OTX2 sites) in ARPE-19 cells cotransfected with MITF-A and OTX2; activation relative to the empty vector [1]: 20 fold | luciferase reporter driven by the human TYR promoter construct -152 (MITF sites, no OTX2 sites) in ARPE-19 cells cotransfected with MITF-M and OTX2; synergism compared with that of MITF-A and OTX2 [2]: ~1.7 fold (against MITF-A)
B1: full-length OTX2 (orthodenticle homeobox 2) (natural protein)
chain: not shown
